Reference: a protein production outcome set (Wang et al. 2014)

Assay: label from the status in PepcDB records
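Note: failed if final PepcDB status was selected cloned or expressed and not failed if soluble or beyond.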

Question: With “MKKIYIILLILFVILISLIGASILLVMSLSGENVDLFGGEKIAKVYLCNEIYFDYNQGDGIFPQQKKDARYYINLLDDLEKDDSVKGVLLVVNSPGGEVIASEKLARKVEELAKKKPVVVYVEGLDASGAYMVSAPADYIVAEKHSIVGSIGVRMDLMHYYGLMKKLGINVTTIKAGKYKDIGSPFRPMTKEEKEYLQKMINETYMDFVKWVAEHRHLSINYTLKIADGKIYSGEDAKKVGLVDEVGTEEDALKKLEQLANVSNPEIVEYGLEENKGLFGLTYYLGYGIGKGIGEVLYGMEKINGRVELLSLEHHHHHH” as the sequence, how does the protein production read?
Answer: failed

Question: With “MAKNIQAIRGMNDYLPGETAIWQRIEGTLKNVLGSYGYSEIRLPIVEQTPLFKRAIGEVTDVVEKEMYTFEDRNGDSLTLRPEGTAGCVRAGIEHGLLYNQEQRLWYIGPMFRHERPQKGRYRQFHQLGCEVFGLQGPDIDAELIMLTARWWRALGISEHVTLELNSIGSLEARANYRDALVAFLEQHKEKLDEDCKRRMYTNPLRVLDSKNPEVQALLNDAPALGDYLDEESREHFAGLCKLLESAGIAYTVNQRLVRGLDYYNRTVFEWVTNSLGSQGTVCAGGRYDGLVEQLGGRATPAVGFAMGLERLVLLVQAVNPEFKADPVVDIYLVASGADTQSAAMALAERLRDELPGVKLMTNHGGGNFKKQFARADKWGARVAVVLGESEVANGTAVVKDLRSGEQTAVAQDSVAAHLRTLLG” as the sequence, how does the protein production read?
Answer: not failed

Question: For “MTGKGQGGSWVPGVVSATDRGNFHASPTTATVLDIIGRILRAPLSATDTEIETALAQVADACSADVAQVCRAGTTGPLEPIHSWVRDGHIVLNIQDLCKFCPGSDQTGPVMLRDLKDLPEGPARDRLAGMELRSLVAVPMLRHGVLAGRVLLGWQTASSDLRPEDLAALQSLAEAMHAAAERRESERLTTEAAAALQEDRLLLESILRTSTSAILAFDADARIVFANDEAAALLGTDANRLPGCTLEGVGCRLLSREGEPLPPEALPVARAIAEGQTLRDLHHVLMAADGRQRILSINAAPVAAGAATAVRVVATIDDVTGQVSADSALRTALAEAHQLAFFDPLTGLYNRRGIVEVLRDCLQTCAREKAFLSLLYIDLDGMRQVNGTRGHWLGDRVLQALGARLDNLRQDGGDLGRISADEFVLTCGETHPDAAGAVAAAEAEAQRILESLREPFVVDGLTLEVTASIGLAAISAEDSVEGLLKGVDLAVMAAKAAGGDRACAYRADMEQDMVGRVALAQELREAIRRDEFRIYFEPMVSLGETGLEIVGQEALIRWEHPQRGLLAPIAFIPFAEETGFIRDIDRWVLRAAAQELARWAEDPARRHLGVSINISSAQFLSEEFGQMVREVLDETGVDPTRIELEVTEGTLLSNLGLARTTMMDLRSLGISIALDDFGTGFSSLSYLRDLPVDVLKIDRSFLGGLSDSKANRTILEGIIGLASGLGVALVAEGVETPAQFAWLRAKGCRTFQGYLFGRPVDEAQTQLAPEVSALGGHGGDRAVSGQIKG”, which protein production is on record?
Answer: failed

Question: For “MNSTAIVLLNWRSAKDTVKCVESLIAAEIRQCDIIIVDNDSQDESINVIKEHFTDVRVIESGKNGGFAYGCNVGIRAALSSGYNYVWLLNNDTIVDKTTLPNMIEEIKRNKKAIVGSIIRDIEFPWSVQAVGGGTINFLTGTGRHIKTFDDVDKLDYLLGASILVSREALESIGLLNEDFFMYWEDTEFCIRARRKGYFLKVAKQSNVYHKEGGSVNKESYAQTRMIFRSMRKFFLKESPFPLLPIAIRQLGKTFVSLLRREFRRIPYIWL”, which protein production is on record?
Answer: failed

Question: With “MLAAAVLPKLLRHMPLSMPMVFLGSGILAFTLLPELPDPDPVKYGDFTTHLTEVCVIISLMGAGLALDRPFRWRGWSTTWRLLGIVMPLCILVMTLLGLWVLGLGLAGAILVAGAIAPTDPVLASEVQVGKPADAEDDPDEDEVRFALTSEAGLNDGLAFPFVYLAILISLVGASPDAWLGEWVALDVLWRTVAGVLVGFGTGKLLSMFFFAAKGKTFRLSEHSEGFVALAATFLAYGAAEMVEGYGFVAVFLCALTIRSAEHNHSYHQVLHSYVEQLERLMTVVILVLLGGAIARGLLEGIGWTEVLVALAFLLLVRPLAGWLGLMGGKTGPRERLAISYFGIRGIGSLFYVAYALTHGNFDAEARELWALIGLVVALSIVVHGATTAPLMNRLDRLRVAEARKQHGDEGRAPTTAV” as the sequence, how does the protein production read?
Answer: failed

Question: Which protein production does the source give for “MRDTIPVTILSGSLGAGKTTLLNHLLTEAGDRDIAVLVNDMGTVNVDAELIAEGSELDVDDGVAELSNGCICCELQDDLETAVVRLADDRDFDALVVESSGISEPAPVARLFTTESRVAALYRVDTLVTVLDTRLFLDSFAGETPERRGSGEASADGDGDDTEADGADRPLSDLMVEQVELSNLVVLNKTDLCTDEEMDEAEELVRALQPDAETIRTTFSQVDPDRLFDRALFDQTEISDLPGWKRALAESGHGHGEGSHDHGGDSHETDAHEGDTGHGHDDHHHPEEVYGVTSFTYRRRRPFHPDRLAEVLQDLPSGVVRSKGTVWLAGSERRVVIGQAGPSIRAEAQGPWIASLPEVEQDMYRSNRPELDWHDEHGDRRTELVFIGTDYDESALRTALDDALVTDEEWTESESLTGPFPAEQGEEAVIRSP” here?
Answer: not failed

Question: With “MERLKIQVLVDNNTYIDRYFVGEPAVSYYIEIDGNRILFDSGYSDVFISNAEKLNIDLGNLTHVVFSHGHNDHTRGIQFLENRYDLSTVELVSHPNCFIPRKHGEKSIGAPFSAEEIKNIFMYNPKDKPFNLSKNCVFLGEIPSINDFEKRAKIGKCKIGDLWEDDYVLDDSAIVCKTDKGIFIVTGCSHSGICNIVEYAKKVCGDDRVIGILGGFHLFELNNRLDSTIQYLDKEEIRMLYPCHCVSFKVKAKMNEILNINEVGVGLTISILEHHHHHH” as the sequence, how does the protein production read?
Answer: not failed

Question: Which protein production does the source give for “VGSVLEIKDPENLKNLGSLIGEEIAKLHQALNSVNSNNELVKRELYKLVYEWALPNLEKNEHVDQDVVRTMNQIHSDFKKTITSLRKQIIHRDMHLSNVIFKDNEFQGFIDFELLERNVRVFDLCYCCTSILSELHSDEELRGKWQHIISKIFEGYNKQSILTREELQAIWYVMLSIQVIFITYFVQLPDLLKLNEEMFF” here?
Answer: failed

Question: With “MTLITVVFVAFALLVIFYTNFMTHTLCERKQIAASRQPGVFRVINVCITILLISSYIEIIFHGK” as the sequence, how does the protein production read?
Answer: failed

Question: Which protein production does the source give for “MAVFHDEVEIEDFQYDEDSETYFYPCPCGDNFAITKEDLENGEDVATCPSCSLIIKVIYDKDQFMCGETV” here?
Answer: not failed

Question: Which protein production does the source give for “MPSPTVTSPQVAVNDIGSSEDFLAAIDKTIKYFNDGDIVEGTIVKVDRDEVLLDIGYKTEGVIPARELSIKHDVDPNEVVSVGDEVEALVLTKEDKEGRLILSKKRAQYERAWGTIEALKEKDEAVKGTVIEVVKGGLILDIGLRGFLPASLVEMRRVRDLQPYIGKEIEAKIIELDKNRNNVVLSRRAWLEQTQSEVRSEFLNNLQKGTIRKGVVSSIVNFGAFVDLGGVDGLVHVSELSWKHIDHPSEVVQVGDEVTVEVLDVDMDRERVSLSLKATQEDPWRHFARTHAIGQIVPGKVTKLVPFGAFVRVEEGIEGLVHISELAERHVEVPDQVVAVGDDAMVKVIDIDLERRRISLSLKQANEDYTEEFDPAKYGMADSYDEQGNYIFPEGFDAETNEWLEGFEKQRAEWEARYAEAERRHKMHTAQMEKFAAAETAGRGADDQSSASSAPSEKTAGGSLASDAQLAALREKLAGSALEHHHHHH” here?
Answer: failed

Question: Which protein production does the source give for “MEFIVDSVDKTMHIGRQLGSLVNKGDILCLTGDLGTGKTHISKGIAEGLGIDEHITSPTFNIVNEYHSGRLTLYHFDVYRVNDPDEIEAIGFDEYIFGDGVSLIEWANYIEELIPEEYIHIKIEKLPDMGENFRKITINGYGDRYNYIKEIKECLEHHHHHH” here?
Answer: not failed

Question: With “MAETSALPTGFGELEVLAVGMVLLVEALSGLSLNTLTIFSFCKTPELRTPCHLLVLSLALADSGISLNALVAATSSLLRRWPYGSDGCQAHGFQGFVTALASICSSAAIAWGRYHHYCTRSQLAWNSAVSLVLFVWLSSAFWAALPLLGWGHYDYEPLGTCCTLDYSKGDRNFTSFLFTMSFFNFAMPLFITITSYSLMEQKLGKSGHLQVNTTLPARTLLLGWGPYAILYLYAVIADVTSISPKLQMVPALIAKMVPTINAINYALGNEMVCRGIWQCLSPQKREKDRTK” as the sequence, how does the protein production read?
Answer: failed
